Laboratory results taken from EP4818204A1 (Nanjing Leads Biolabs Co., Ltd., dated 2026).
Where two headings read alike, the source gives them in different places.

T1: human GDNF protein (human, UniProt P39905 78-211)
T1 construct: Bought
T1 sequence (looked up): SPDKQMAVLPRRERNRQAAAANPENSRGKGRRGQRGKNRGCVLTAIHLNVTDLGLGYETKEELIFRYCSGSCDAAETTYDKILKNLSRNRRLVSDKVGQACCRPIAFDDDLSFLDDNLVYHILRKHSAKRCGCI

T2: human GDF1 protein (human, UniProt P27539 254-372, limits assumed)
T2 construct: Bought
T2 sequence (looked up): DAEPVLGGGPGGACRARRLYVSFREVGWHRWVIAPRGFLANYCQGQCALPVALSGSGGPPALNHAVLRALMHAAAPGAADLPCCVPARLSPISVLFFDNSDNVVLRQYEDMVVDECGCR

T3: human GDF2 protein (human, UniProt Q9UK05 320-429)
T3 construct: Bought
T3 sequence (looked up): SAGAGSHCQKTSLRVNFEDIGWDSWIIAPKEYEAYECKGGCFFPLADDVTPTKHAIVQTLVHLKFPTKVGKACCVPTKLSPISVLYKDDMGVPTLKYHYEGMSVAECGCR

T4: human GDF3 protein (human, UniProt Q9NR23 251-364, limits assumed)
T4 construct: Bought
T4 sequence (looked up): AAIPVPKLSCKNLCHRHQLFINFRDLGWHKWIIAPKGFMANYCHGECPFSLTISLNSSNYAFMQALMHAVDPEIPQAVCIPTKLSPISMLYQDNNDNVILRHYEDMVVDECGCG

T5: human GDF11 protein (human, UniProt O95390 299-407)
T5 construct: Bought
T5 sequence (looked up): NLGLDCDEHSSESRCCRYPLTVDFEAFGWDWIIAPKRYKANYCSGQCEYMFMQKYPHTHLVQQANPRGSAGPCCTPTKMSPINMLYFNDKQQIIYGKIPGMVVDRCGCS

T6: human GFRα1 protein (human, UniProt P56159 25-429, limits assumed)
T6 construct: Bought
T6 sequence (looked up): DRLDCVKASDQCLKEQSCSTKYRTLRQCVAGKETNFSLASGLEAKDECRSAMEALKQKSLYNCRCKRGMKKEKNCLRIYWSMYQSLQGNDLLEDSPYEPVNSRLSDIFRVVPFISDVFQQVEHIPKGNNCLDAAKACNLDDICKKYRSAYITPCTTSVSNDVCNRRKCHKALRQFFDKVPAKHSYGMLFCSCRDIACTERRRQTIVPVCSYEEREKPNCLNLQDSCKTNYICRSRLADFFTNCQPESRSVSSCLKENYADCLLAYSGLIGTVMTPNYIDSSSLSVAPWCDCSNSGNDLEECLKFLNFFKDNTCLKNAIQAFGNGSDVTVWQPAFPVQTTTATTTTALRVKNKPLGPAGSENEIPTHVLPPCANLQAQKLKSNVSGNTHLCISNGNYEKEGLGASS

T7: human Activin A protein (human, UniProt P08476 311-426)
T7 construct: Bought; Activin A is by nature a dimer of inhibin beta A chains
T7 sequence (looked up): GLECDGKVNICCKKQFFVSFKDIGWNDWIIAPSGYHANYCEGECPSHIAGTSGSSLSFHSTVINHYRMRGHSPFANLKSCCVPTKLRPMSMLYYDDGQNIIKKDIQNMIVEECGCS

T8: human Activin B protein (human, UniProt P09529 293-407)
T8 construct: Bought; Activin B is by nature a dimer of inhibin beta B chains
T8 sequence (looked up): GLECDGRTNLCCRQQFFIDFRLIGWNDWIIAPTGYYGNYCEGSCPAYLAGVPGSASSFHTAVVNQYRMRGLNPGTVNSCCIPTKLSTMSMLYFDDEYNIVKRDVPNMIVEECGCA

T9: human BMP4 protein (human, UniProt P12644 293-408)
T9 construct: Bought
T9 sequence (looked up): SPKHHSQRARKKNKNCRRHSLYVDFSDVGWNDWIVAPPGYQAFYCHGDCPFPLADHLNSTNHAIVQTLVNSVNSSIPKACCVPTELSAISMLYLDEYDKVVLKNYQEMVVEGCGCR

T10: Human GDF15 protein (human, UniProt Q99988 197-308)
T10 construct: Natural GDF15 is said to be a disulfide-linked homodimer; also called Human-GDF15-his
T10 sequence: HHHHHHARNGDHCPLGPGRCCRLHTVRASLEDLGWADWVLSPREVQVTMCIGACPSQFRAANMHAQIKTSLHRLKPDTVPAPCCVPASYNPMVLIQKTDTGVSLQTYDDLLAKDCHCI


Key:
human GDNF protein [1] = molecular target: T1, human GDNF protein; experiment: ELISA, coated protein
[2] = molecular target: human AMH protein (human) (UniProt P03971); experiment: ELISA, coated protein, antibody at 4 µg/mL
[3] = molecular target: human GDF8 protein (human) (UniProt O14793); experiment: ELISA, coated protein, antibody at 4 µg/mL
human GDF1 protein = molecular target: T2, human GDF1 protein; experiment: ELISA, coated protein, antibody at 4 µg/mL
human GDF2 protein = molecular target: T3, human GDF2 protein; experiment: ELISA, coated protein, antibody at 4 µg/mL
human GDF3 protein = molecular target: T4, human GDF3 protein; experiment: ELISA, coated protein, antibody at 4 µg/mL
human GDF11 protein = molecular target: T5, human GDF11 protein; experiment: ELISA, coated protein, antibody at 4 µg/mL
human GDNF protein [4] = molecular target: T1, human GDNF protein; experiment: ELISA, coated protein, antibody at 4 µg/mL
human GFRα1 protein = molecular target: T6, human GFRα1 protein; experiment: ELISA, coated protein, antibody at 4 µg/mL
human BMP2 protein [5] = molecular target: T11, human BMP2 protein (human, UniProt P12643 283-396); experiment: ELISA, coated protein, antibody at 4 µg/mL
T11 construct: Bought

human Activin A protein [6] = molecular target: T7, human Activin A protein; experiment: ELISA, coated protein, antibody at 4 µg/mL
human Activin B protein = molecular target: T8, human Activin B protein; experiment: ELISA, coated protein, antibody at 4 µg/mL
human BMP4 protein = molecular target: T9, human BMP4 protein; experiment: ELISA, coated protein, antibody at 4 µg/mL
human GDNF protein [7] = molecular target: T1, human GDNF protein; experiment: ELISA, coated protein, antibody at 4 µg/mL; remark: listed apart in the source
human BMP2 protein [8] = molecular target: T11, human BMP2 protein; experiment: ELISA, coated protein, antibody at 4 µg/mL; remark: listed apart in the source
human Activin A protein [9] = molecular target: T7, human Activin A protein; experiment: ELISA, coated protein, antibody at 4 µg/mL; remark: listed apart in the source
Human GDF15 protein = molecular target: T10, Human GDF15 protein; experiment: ELISA, coated protein, antibody at 4 µg/mL
human FcRn protein = molecular target: T12, human FcRn protein (human, UniProt P55899 24-297); experiment: BLI (Octet RED96e), FcRn on SA sensor, antibody as analyte, binding and dissociation at pH 6.0, 1:1 model
T12 construct: Bought, loaded on a streptavidin (SA) sensor; FcRn is by nature a heterodimer with beta-2-microglobulin
T12 sequence (P55899 24-297 limits assumed, form in doubt): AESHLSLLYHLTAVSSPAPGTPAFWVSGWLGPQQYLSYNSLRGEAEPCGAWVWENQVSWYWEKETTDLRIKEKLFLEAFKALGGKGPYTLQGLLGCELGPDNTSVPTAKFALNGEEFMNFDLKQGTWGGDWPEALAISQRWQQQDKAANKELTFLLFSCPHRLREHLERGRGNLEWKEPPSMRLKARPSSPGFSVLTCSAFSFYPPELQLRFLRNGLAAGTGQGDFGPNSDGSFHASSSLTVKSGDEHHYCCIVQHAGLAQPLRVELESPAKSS

T11 sequence (P12643 283-396 limits assumed): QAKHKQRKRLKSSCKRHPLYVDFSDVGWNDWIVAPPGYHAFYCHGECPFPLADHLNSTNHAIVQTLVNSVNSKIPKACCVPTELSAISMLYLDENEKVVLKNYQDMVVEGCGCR

binding result (human GDNF protein [1]) | OD value (OD 450 nm-620 nm) [2] | OD value (OD 450 nm-620 nm) [3] | OD value (human GDF1 protein) [OD 450 nm-620 nm] | OD value (human GDF2 protein) [OD 450 nm-620 nm] | OD value (human GDF3 protein) [OD 450 nm-620 nm] | OD value (human GDF11 protein) [OD 450 nm-620 nm] | OD value (human GDNF protein [4]) [OD 450 nm-620 nm] | OD value (human GFRα1 protein) [OD 450 nm-620 nm] | OD value (human BMP2 protein [5]) [OD 450 nm-620 nm] | OD value (human Activin A protein [6]) [OD 450 nm-620 nm] | OD value (human Activin B protein) [OD 450 nm-620 nm] | OD value (human BMP4 protein) [OD 450 nm-620 nm] | OD value (human GDNF protein [7]) [OD 450 nm-620 nm] | OD value (human BMP2 protein [8]) [OD 450 nm-620 nm] | OD value (human Activin A protein [9]) [OD 450 nm-620 nm] | OD value (Human GDF15 protein) [OD 450 nm-620 nm] | Kd (human FcRn protein) [nM] | koff (human FcRn protein) [s⁻¹] | kon (human FcRn protein) [M⁻¹ s⁻¹] | Binder
no binding (tested: 4 µg/mL) | 0.0887 | 0.0505 | 0.0433 | 0.0678 | 0.0418 | 0.0368 | 0.0531 | 0.0468 | 0.0457 | 0.0577 | 0.136 | 0.0587 | 0.241 | 0.0764 | 0.0595 | 2.47 | 7.41 | 0.0146 | 1.97e+06 | Hu19C4C7 (antibody, human IgG1, kappa, Humanized form of murine 19C4C7; human IgG1 constant region with L234A, L235A, G237A and kappa light chain constant region; also called hu19C4C7-IgG1-mut(L234A,L235A,G237A)) heavy: QVQLVQSGAEVKKPGSSVKVSCKASGYSFTGYIMNWVRQAPGQSLEWMGDIDPYYGGPNYNQKFQGRVTITVDKSTSTAYMELSSLRSEDTAVYYCSRRDYNYGSFAYWGQGTLVTVSSASTKGPSVFPLAPSSKSTSGGTAALGCLVKDYFPEPVTVSWNSGALTSGVHTFPAVLQSSGLYSLSSVVTVPSSSLGTQTYICNVNHKPSNTKVDKKVEPKSCDKTHTCPPCPAPEAAGAPSVFLFPPKPKDTLMISRTPEVTCVVVDVSHEDPEVKFNWYVDGVEVHNAKTKPREEQYNSTYRVVSVLTVLHQDWLNGKEYKCKVSNKALPAPIEKTISKAKGQPREPQVYTLPPSREEMTKNQVSLTCLVKGFYPSDIAVEWESNGQPENNYKTTPPVLDSDGSFFLYSKLTVDKSRWQQGNVFSCSVMHEALHNHYTQKSLSLSPGK light: QIVLTQSPATLSLSPGERATLSCRASSSVNYMHWYQQKPGQAPRPLIYATSNLATGIPARFSGSGSGTDYTLTISSLEPEDFAVYYCQQWSDNPPTFGQGTKLEIKRTVAAPSVFIFPPSDEQLKSGTASVVCLLNNFYPREAKVQWKVDNALQSGNSQESVTEQDSKDSTYSLSSTLTLSKADYEKHKVYACEVTHQGLSSPVTKSFNRGEC
no binding (tested: 4 µg/mL) | – | – | 0.0412 | 0.0648 | 0.041 | 0.0426 | 0.105 | 0.0655 | 0.0683 | 0.0632 | 0.0899 | – | – | – | – | – | – | – | – | Hu21H6D2 (antibody, human IgG1, kappa, V domains shown, Humanized form of murine 21H6D2; human IgG1 constant region with L234A, L235A, G237A and kappa light chain constant region; also called hu21H6D2-IgG1-mut(L234A,L235A,G237A)) VH: QVQLVQSGAEVKKPGASVKVSCKASGYTFTGYIMNWVRQAPGQRLEWMGDIDPYYGDAKYNQKFKGKVTITVDKSASTAYMELSSLRSEDTAVYYCARRDYDHGSFAYWGQGTLVTVSS VL: EIVLTQSPDFQSVTPKEKVTITCSASSSVNYMHWYQQKPDQSPKRLIYDTSKLASGVPSRFSGSGSGTDYTLTINSLEAEDAATYYCQQWSSNPPTFGQGTKLEIKR
– | – | – | 0.0504 | 0.0644 | 0.0406 | 0.04 | – | 0.27 | 0.0538 | 0.0493 | 0.062 | – | – | – | – | – | – | – | – | HuVHH43-3 (Fc fusion, also called huVHH43-IgG1-mut(L234A,L235A,G237A); VHH humanized anti-GDF15 antibody) heavy: QLQLVESGGGLVQPGGSLRLSCAASGHTYGMGWFRQAPGKAREIVSAISRSGSSTYYADSVKGRFTISRDNSKNTLYLQMNSLRAEDTAVYICGASTSALVPTTTGMYAYWGQGTRVTVSSEPKSSDKTHTCPPCPAPEAAGAPSVFLFPPKPKDTLMISRTPEVTCVVVDVSHEDPEVKFNWYVDGVEVHNAKTKPREEQYNSTYRVVSVLTVLHQDWLNGKEYKCKVSNKALPAPIEKTISKAKGQPREPQVYTLPPSREEMTKNQVSLTCLVKGFYPSDIAVEWESNGQPENNYKTTPPVLDSDGSFFLYSKLTVDKSRWQQGNVFSCSVMHEALHNHYTQKSLSLSPGK
